Values quoted from earlier work in publication PMC6239910.

Target: Ube2D3-Ub conjugate (Homo sapiens) (UniProt P61077)
Sequence (P61077 whole entry): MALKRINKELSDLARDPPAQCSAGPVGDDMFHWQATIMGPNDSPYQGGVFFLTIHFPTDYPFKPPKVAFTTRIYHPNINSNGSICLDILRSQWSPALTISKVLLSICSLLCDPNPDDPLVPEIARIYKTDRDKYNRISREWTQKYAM

Sequence of UHRF1 (Q96T88 whole entry): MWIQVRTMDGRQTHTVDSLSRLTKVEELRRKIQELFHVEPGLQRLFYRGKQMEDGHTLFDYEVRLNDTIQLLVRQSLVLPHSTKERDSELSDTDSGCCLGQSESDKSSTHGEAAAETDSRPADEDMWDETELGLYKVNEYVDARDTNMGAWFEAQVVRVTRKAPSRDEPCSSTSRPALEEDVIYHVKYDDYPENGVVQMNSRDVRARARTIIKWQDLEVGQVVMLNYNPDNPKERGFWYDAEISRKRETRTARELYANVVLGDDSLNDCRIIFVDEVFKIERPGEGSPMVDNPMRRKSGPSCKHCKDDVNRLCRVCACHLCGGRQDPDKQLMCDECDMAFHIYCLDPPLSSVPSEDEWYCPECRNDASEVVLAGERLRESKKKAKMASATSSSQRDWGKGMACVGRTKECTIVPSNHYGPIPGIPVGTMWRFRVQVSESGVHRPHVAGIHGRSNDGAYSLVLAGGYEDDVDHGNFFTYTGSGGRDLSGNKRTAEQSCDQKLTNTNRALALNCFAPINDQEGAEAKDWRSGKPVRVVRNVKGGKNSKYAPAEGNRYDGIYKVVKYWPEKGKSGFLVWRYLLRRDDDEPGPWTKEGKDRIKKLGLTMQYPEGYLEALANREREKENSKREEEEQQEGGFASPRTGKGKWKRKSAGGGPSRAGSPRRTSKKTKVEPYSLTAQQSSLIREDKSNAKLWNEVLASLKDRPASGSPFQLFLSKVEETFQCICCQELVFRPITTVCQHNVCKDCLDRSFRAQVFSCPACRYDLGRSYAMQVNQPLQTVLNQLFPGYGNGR

For UHRF1 (from UniProt Q96T88), the Kd is listed as 3.2 µM.
